What was measured:
[1] = molecular target: MUC2-C, the C-terminal part of the human MUC2 mucin, fully glycosylated (human); experiment: polyacrylamide gel electrophoresis, non-reduced against reduced; purified MUC2-C; band of around 300 kDa non-reduced, about 150 kDa after reduction
[2] = molecular target: MUC2-C, the C-terminal part of the human MUC2 mucin, fully glycosylated (human); experiment: SEC-SAXS; 25 °C; 25 mM HEPES pH 7.4, 100 mM NaCl, 10 mM CaCl2; beamline BM29, ESRF

stoichiometry N [1]: 2 | stoichiometry N [2]: 2
Substance: MUC2-C, the C-terminal part of the human MUC2 mucin, fully glycosylated (domain or fragment)

From publication PMC10082768
